Test results taken from patent US20250011397A1 (HOSPITAL FOR SICK CHILDREN, published 2025).
Values joined by “and” are separate entries in the source; they are usually repeats but may differ in a detail not shown here. Equal values may be shown once.

What was measured:
Experiment in all cases: cell-based or functional assay
[1] = molecular target: T1, SARS-CoV-2 Spike on HIV-based pseudotyped virus (Spike plasmid BEI NR52310) (SARS-CoV-2, UniProt P0DTC2 14-1273)
[2] = molecular target: T1, SARS-CoV-2 Spike on HIV-based …; remark: listed apart in the source
[3] = molecular target: Spike of authentic SARS-CoV-2/SB2-P4-PB virus (SARS-CoV-2, UniProt P0DTC2 14-1273)

Binder | Median IC50 (PsV neutralization) [1] | IC50 SARS-CoV2 PsV (µg/mL), MB [2] [µg/mL] | IC50 SARS-CoV2/SB2-P4-PB (µg/mL), MB [3] [µg/mL] | IC50 SARS-CoV2 PsV (µg/mL), IgG [2] [µg/mL] | IC50 SARS-CoV2/SB2-P4-PB (µg/mL), IgG [3] [µg/mL]
MB 82 (other) heavy: QVQLVQSGAEVKKPGASVKVSCKASGGSFSTSAFYWVRQAPGQGLEWMGWINPYTGGTNYAQKFQGRVTMTRDTSTSTVYMELSSLRSEDTAVYYCARSRALYGSGSYFDYWGQGTLVTVSSASTKGPSVFPLAPSSKSTSGGTAALGCLVKDYFPEPVTVSWNSGALTSGVHTFPAVLQSSGLYSLSSVVTVPSSSLGTQTYICNVNHKPSNTKVDKKVEPKSC light: not shown | 0.0022 µg/mL and 0.95 pM | 0.0022 | 0.21 | – | –
mAb 120 (antibody, V domains shown, also called IgG 120) VH: QVQLVQSGAEVKKPGASVKVSCKASGYTFTSYDINWVRQAPGQGLEWMGMIDPSGGSTSYAQKFQGRVTMTRDTSTSTVYMELSSLRSEDTAVYYCAKDFGGGTRYDYWYFDLWGRGTLVTVSS VL: EIVMTQSPATLSVSPGERATLSCRASQSVSSRYLAWYQQKPGQAPRLLIYGASTRATGIPARFSGSGSGTEFTLTISSLQSEDFAVYYCQQYYTTPRTFGQGTRLEIKR | > 50 µg/mL and > 333 nM | – | – | > 50 | –
mAb 368 (antibody, V domains shown) VH: QVQLVQSGAEVKKPGSSVKVSCKASGYTFTSYDINWVRQAPGQGLEWMGAIMPMFGTANYAQKFQGRVTITADESTSTAYMELSSLRSEDTAVYYCARGSSGYYYGWGQGTLVTVSS VL: not shown | > 50 µg/mL and > 333 nM | – | – | > 50 | –
MB 46 (other) heavy: EVQLLESGGGLVQPGRSLRLSCAASGFTFSSYAMSWVRQAPGKGLEWVSTIYSGGSTYYADSVKGRFTISRDNSKNTLYLQMNSLRAEDTAVYYCARGDSRDAFDIWGQGTMVTVSSASTKGPSVFPLAPSSKSTSGGTAALGCLVKDYFPEPVTVSWNSGALTSGVHTFPAVLQSSGLYSLSSVVTVPSSSLGTQTYICNVNHKPSNTKVDKKVEPKSC light: not shown | 0.0024 µg/mL and 1 pM | 0.0024 | 0.027 | – | –
mAb 254 (antibody, V domains shown, also called IgG 254) VH: EVQLLESGGGLVQPGGSLRLSCAASGFTFSSSAMHWVRQAPGKGLEWVSAIGTGGDTYYADSVKGRFTISRDNSKNTLYLQMNSLRAEDTAVYYCAREGDGYNFYFDYWGQGTLVTVSS VL: DIQMTQSPSSLSASVGDRVTITCRASQGISSYLAWYQQKPGKAPKLLIYDASSLQIGVPSRFSGSGSGTDFTLTISSLQPEDFATYYCLQSYSTPPWTFGQGTKVEIKR | > 50 µg/mL and > 333 nM | – | – | > 50 | –
mAb 349 (antibody, V domains shown, also called IgG 349) VH: EVQLLESGGGLVQPGGSLRLSCAASGFTFSNYGMHWVRQAPGKGLEWVSGISSAGSITNYADSVKGRFTISRDNSKNTLYLQMNSLRAEDTAVYYCAGNHAGTTVTSEYFQHWGQGTLVTVSS VL: DIQMTQSPSSLSASVGDRVTITCRASQSISSWLAWYQQKPGKAPKLLIYDTSNLETGVPSRFSGSGSGTDFTLTISSLQPEDFATYYCQQSYTTPWTFGQGTRLEIKR | > 50 µg/mL and > 333 nM | – | – | > 50 | –
mAb 108 (antibody, V domains shown) VH: QVQLVQSGAEVKKPGASVKVSCKASGYIFSRYAIHWVRQAPGQGLEWMGWMNPISGNTDYAPNFQGRVTMTRDTSTSTVYMELSSLRSEDTAVYYCAKDGSQLAYLVEYFQHWGQGTLVTVSS VL: DIQMTQSPSSLSASVGDRVTITCRASQVITNNLAWYQQKPGKAPKLLIYDASTLETGVPSRFSGSGSGTDFTLTISSLQPEDFATYYCQQSYTFPYTFGQGTKVEIKR | > 50 µg/mL and > 333 nM | – | – | > 50 | –
mAb 160 (antibody, V domains shown, also called IgG 160) VH: QVQLVQSGAEVKKPGASVKVSCKASGYTFTGHDMHWVRQAPGQGLEWMGIINPSGGSTSYAQKFQGRVTMTRDTSTSTVYMELSSLRSEDTAVYYCARANSLRYYYGMDVWGQGTMVTVSS VL: DIQMTQSPSSLSASVGDRVTITCRASQSVSSWLAWYQQKPGKAPKLLIYAASSLQSGVPSRFSGSGSGTDFTLTISSLQPEDFATYYCQQGYTTPYTFGQGTKLEIKR | > 50 µg/mL and > 333 nM | – | – | > 50 | –
mAb 192 (antibody, V domains shown) VH: QVQLVQSGAEVKKPGSSVKVSCKASGGTFSSYAISWVRQAPGQGLEWMGWINPNSGGANYAQKFQGRVTITADESTSTAYMELSSLRSEDTAVYYCSTYYYDSSGYSTDYWGQGTLVTVSS VL: DIVMTQSPLSLPVTPGEPASISCRSSQSLLHSNGYNYLDWYLQKPGQSPQLLIYAASSLQSGVPDRFSGSGSGTDFTLKISRVEAEDVGVYYCMQALQTPYTFGQGTKLEIKR | > 50 µg/mL and > 333 nM | – | – | > 50 | –
mAb 180 (antibody, V domains shown) VH: QVQLVQSGAEVKKPGSSVKVSCKASGYTFTSYAMHWVRQAPGQGLEWMGRISPRSGGTKYAQRFQGRVTITADESTSTAYMELSSLRSEDTAVYYCAREAVAGTHPQAGDFDLWGRGTLVTVSS VL: DIVMTQSPLSLPVTPGEPASISCRSSQSLLHSNGYNYLDWYLQKPGQSPQLLIYAASSLQSGVPDRFSGSGSGTDFTLKISRVEAEDVGVYYCQQYYSSPYTFGQGTKLEIKR | > 50 µg/mL and > 333 nM | – | – | > 50 | –
MB 324 (other) heavy: QVQLVQSGAEVKKPGASVKVSCKASGGTFNNYGISWVRQAPGQGLEWMGWMNPNSGNTGYAQKFQGRVTMTRDTSTSTVYMELSSLRSEDTAVYYCARVGDYGDYIVSPFDLWGRGTLVTVSSASTKGPSVFPLAPSSKSTSGGTAALGCLVKDYFPEPVTVSWNSGALTSGVHTFPAVLQSSGLYSLSSVVTVPSSSLGTQTYICNVNHKPSNTKVDKKVEPKSC light: not shown | 0.0009 µg/mL and 0.39 pM | 0.0009 | 0.024 | – | –
mAb 56 (antibody, V domains shown, also called IgG 56) VH: QVQLVQSGAEVKKPGASVKVSCKASGYTFTSYGISWVRQAPGQGLEWMGWISAYNGNTNYAQKLQGRVTMTRDTSTSTVYMELSSLRSEDTAVYYCARDIGPIDYWGQGTLVTVSS VL: DIQMTQSPSSLSASVGDRVTITCRASQGISSYLAWYQQKPGKAPKLLIYDASNLQSGVPSRFSGSGSGTDFTLTISSLQPEDFATYYCQQANSFPSTFGQGTKVEIKR | > 50 µg/mL and > 333 nM | – | – | > 50 | –
mAb 64 (antibody, V domains shown, also called IgG 64) VH: EVQLLESGGGLVQPGGSLRLSCAASGFPFSQHGMHWVRQAPGKGLEWVSAIDRSGSYIYYADSVKGRFTISRDNSKNTLYLQMNSLRAEDTAVYYCARDTYGGKVTYFDYWGQGTLVTVSS VL: DIQMTQSPSSLSASVGDRVTITCRASQGISSHLAWYQQKPGKAPKLLIYDASNLETGVPSRFSGSGSGTDFTLTISSLQPEDFATYYCQQTYSTPWTFGQGTKVEIKR | > 50 µg/mL and > 333 nM | – | – | > 50 | –
mAb 158 (antibody, V domains shown, also called IgG 158) VH: QVQLVQSGAEVKKPGASVKVSCKASGYTFTGYYMHWVRQAPGQGLEWMGWINPLNGGTNFAPKFQGRVTMTRDTSTSTVYMELSSLRSEDTAVYYCARDPGGSYSNDAFDIWGQGTLVTVSS VL: DIQMTQSPSSLSASVGDRVTITCRASQSISRYLNWYQQKPGKAPKLLIYDASNLESGVPSRFSGSGSGTDFTLTISSLQPEDFATYYCQQANSFPLTFGGGTKVDIKR | > 50 µg/mL and > 333 nM | – | – | > 50 | –
mAb 82 (antibody, V domains shown, also called IgG 82) VH: QVQLVQSGAEVKKPGASVKVSCKASGGSFSTSAFYWVRQAPGQGLEWMGWINPYTGGTNYAQKFQGRVTMTRDTSTSTVYMELSSLRSEDTAVYYCARSRALYGSGSYFDYWGQGTLVTVSS VL: DIQMTQSPSSLSASVGDRVTITCRASQVISNYLAWYQQKPGKAPKLLIYDASNLETGVPSRFSGSGSGTDFTLTISSLQPEDFATYYCQQSFSPPPTFGQGTRLEIKR | 1.6 µg/mL and 11 nM | – | – | 1.6 | –
mAb 46 (antibody, V domains shown, also called IgG 46; antibody 46) VH: EVQLLESGGGLVQPGRSLRLSCAASGFTFSSYAMSWVRQAPGKGLEWVSTIYSGGSTYYADSVKGRFTISRDNSKNTLYLQMNSLRAEDTAVYYCARGDSRDAFDIWGQGTMVTVSS VL: DIQMTQSPSSLSASVGDRVTITCRASQSISSWLAWYQQKPGKAPKLLIYDASNLETGVPSRFSGSGSGTDFTLTISSLQPEDFATYYCQQSYSTPFTFGPGTKVDIKR | 2.1 µg/mL and 14 nM | – | – | 2.1 | 19
mAb 178 (antibody, V domains shown, also called IgG 178) VH: QVQLVQSGAEVKKPGASVKVSCKASGYTFTDYHMHWVRQAPGQGLEWMGWINPNSGGTNYAQKFQGRVTMTRDTSTSTVYMELSSLRSEDTAVYYCARDISSWYEITKFDPWGQGTLVTVSS VL: EIVMTQSPATLSVSPGERATLSCKASQSVSGTYLAWYQQKPGQAPRLLIYGASTRATGIPARFSGSGSGTEFTLTISSLQSEDFAVYYCLQTHSYPPTFGQGTKVEIKR | > 50 µg/mL and > 333 nM | – | – | > 50 | –
